# Test results taken from US20240189392A1.
# Positions of bridges follow the written chain, without caps; N, C: chain ends. Chains are numbered I, II in the order given. No end group written: not given here.
# Target: human RXFP2 (human), Q8WXD0
# Test: cell-based or functional assay
# Chain of human RXFP2 (human), Q8WXD0 (Q8WXD0 whole entry): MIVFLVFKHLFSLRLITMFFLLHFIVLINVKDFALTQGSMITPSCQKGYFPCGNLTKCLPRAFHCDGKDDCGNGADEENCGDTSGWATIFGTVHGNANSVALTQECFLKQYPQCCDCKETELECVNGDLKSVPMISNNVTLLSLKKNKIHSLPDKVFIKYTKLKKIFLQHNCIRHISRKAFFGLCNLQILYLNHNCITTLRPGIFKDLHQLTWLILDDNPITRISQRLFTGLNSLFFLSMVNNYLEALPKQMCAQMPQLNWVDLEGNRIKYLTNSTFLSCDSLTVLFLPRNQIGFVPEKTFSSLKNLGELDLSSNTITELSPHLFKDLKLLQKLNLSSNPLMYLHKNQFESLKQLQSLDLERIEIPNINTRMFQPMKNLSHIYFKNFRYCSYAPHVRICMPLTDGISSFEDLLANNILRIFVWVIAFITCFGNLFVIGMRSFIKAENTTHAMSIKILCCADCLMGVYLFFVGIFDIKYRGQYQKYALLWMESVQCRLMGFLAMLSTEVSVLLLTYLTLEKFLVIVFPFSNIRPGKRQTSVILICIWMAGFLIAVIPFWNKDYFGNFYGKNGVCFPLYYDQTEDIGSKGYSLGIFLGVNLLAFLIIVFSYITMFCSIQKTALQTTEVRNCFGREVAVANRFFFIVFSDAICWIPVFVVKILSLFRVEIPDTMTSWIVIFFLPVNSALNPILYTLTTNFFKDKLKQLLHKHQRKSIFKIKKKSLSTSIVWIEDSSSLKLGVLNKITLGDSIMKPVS
"fold less potent than INSL3, cAMP assay, human RXFP2/CHO-K1 cells","Maximal cAMP stimulation by RLX-A-AQ1-20KPEG compared to WT-RLX (percent difference), AVG, hRXFP2","Potency Ratio (RLX-A-AQ1-20KPEG/WT-RLX), cAMP assay, human RXFP2/CHO-K1 cells","RLX-A-AQ1-20KPEG Potency Ratio (hRXFP 1-1.0), cAMP assay","cAMP Assay EC50 (nM), human RXFP2/CHO-K1 cells",Binder
10 fold,,,,,"wild-type relaxin (human relaxin 2) (ligand, disulfide I:10-I:15, I:11-II:11, I:24-II:23) chain 1: QLYSALANKCCHVGCTKRSLARFC chain 2: DSWMEEVIKLCGRELVRAQIAICGMSTWS"
,99%,32 fold,54,174 nM,"RLX-A-AQ1-20KPEG (ligand, here or on the partner: pACF (para-acetylphenylalanine) at position 1 of the A chain, linked to a 20 kDA PEG via an oxime linkage) chain 1: XLYSALANKCCHVGCTKRSLARFC chain 2: ASWMEEVIKLCGRELVRAQIAICGMSTWS"
